pKd: −log10 of the molar value.
How the values were obtained:
Conditions in all cases: 100 mM Na+, pH 7.5, 21 C; slow pulling (100 nm/s) for equilibrium measurements
[1] = test system: Nhp6Ap (Saccharomyces cerevisiae); test: optical tweezers, overstretching force, Hill fit
[2] = test system: HMGB2 (box A), +/- His tag average (human); test: optical tweezers, overstretching force, Hill fit
[3] = test system: HMGB2 (box A) +his (human); test: optical tweezers, overstretching force vs concentration
[4] = test system: HMGB2 (box A) -his (human); test: as above
[5] = test system: Nhp6Ap (Saccharomyces cerevisiae); test: as above
[6] = test system: HMGB2 (box A), +/- His tag average (human); test: as above
[7] = test system: Nhp6Ap (Saccharomyces cerevisiae); test: optical tweezers, WLC/FJC linear combination fit
[8] = test system: HMGB2 (box A), +/- His tag average (human); test: optical tweezers, WLC/FJC linear combination fit
[9] = test system: HMGB2 (box A) +his (human); test: optical tweezers, persistence/contour length vs concentration
[10] = test system: HMGB2 (box A) -his (human); test: as above
[11] = test system: Nhp6Ap (Saccharomyces cerevisiae); test: as above
[12] = test system: HMGB2 (box A), +/- His tag average (human); test: as above
[13] = test system: Nhp6Ap (Saccharomyces cerevisiae); test: optical tweezers, persistence/contour length, Hill fit
[14] = test system: HMGB2 (box A), +/- His tag average (human); test: as above

phage lambda DNA
pKd [1]: 6.82
pKd [2]: 6.07
pKd [3]: 6.03
pKd [4]: 6.08
pKd [5]: 6.80
pKd [6]: 6.06
pKd [7]: 7.20
pKd [8]: 6.34
pKd [9]: 6.64
pKd [10]: 6.89
pKd [11]: 7.15
pKd [12]: 6.74
pKd [13]: 7.18
pKd [14]: 6.77

Reference: publication PMC3592474
